Assay results as given in the supplement of paper PMC9112550, “Optimization of the antimicrobial peptide Bac7 by deep mutational scanning” (BMC Biology, 2022).
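Also: peptides expressed intracellularly from a pBAD plasmid library in pooled LB shake-flask culture, induced with 0.3% L-arabinose, DNA abundance read by NGS, three biological replicates, DESeq2 with apeglm shrinkage.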

Each sequence was assayed on Escherichia coli TOP10 (assay: shrunken log2 fold change of peptide-encoding DNA abundance (4.5 h post-induction vs induction); higher = less antimicrobial activity (less host growth inhibition)). Settings: time post-induction: 4.5 h; library: site-saturation at positions 5, 18, 19, 20.
For RRIRGRPPRLPRPRPRPIVTPRP, the “shrunken log2 fold change” value was 0.583. In the case of RRIRHRPPRLPRPRPRPTYFPRP, the “shrunken log2 fold change” value is reported as -0.309. In the case of RRIRPRPPRLPRPRPRPVHTPRP, the “shrunken log2 fold change” value is reported as -0.036. RRIRPRPPRLPRPRPRPFEEPRP was tested, and the “shrunken log2 fold change” value was -0.00852. RRIRGRPPRLPRPRPRPFSTPRP was tested, and the “shrunken log2 fold change” value was -0.0796. With RRIRLRPPRLPRPRPRPWELPRP the “shrunken log2 fold change” value was -0.00192. For RRIRMRPPRLPRPRPRPMRDPRP, the “shrunken log2 fold change” value was 1.3. In the case of RRIRARPPRLPRPRPRPAKTPRP, the “shrunken log2 fold change” value is reported as 0.179. In the case of RRIRNRPPRLPRPRPRPDRGPRP, the “shrunken log2 fold change” value is reported as -0.0223. With RRIRTRPPRLPRPRPRPCRHPRP the “shrunken log2 fold change” value was -0.101. In the case of RRIRFRPPRLPRPRPRPCTWPRP, the “shrunken log2 fold change” value is reported as -0.0991. For RRIRKRPPRLPRPRPRPHGQPRP, the “shrunken log2 fold change” value was -0.0371. In the case of RRIRTRPPRLPRPRPRPEHFPRP, the “shrunken log2 fold change” value is reported as -0.115. With RRIRPRPPRLPRPRPRPTNNPRP the “shrunken log2 fold change” value was -0.329. For RRIRWRPPRLPRPRPRPRRWPRP, the “shrunken log2 fold change” value was 0.482. With RRIRSRPPRLPRPRPRPHLSPRP the “shrunken log2 fold change” value was -0.0791. RRIRSRPPRLPRPRPRPQYEPRP was tested, and the “shrunken log2 fold change” value was -0.355. With RRIRLRPPRLPRPRPRPKCDPRP the “shrunken log2 fold change” value was -0.461. RRIRARPPRLPRPRPRPYIEPRP was tested, and the “shrunken log2 fold change” value was -0.44. In the case of RRIRFRPPRLPRPRPRPRIDPRP, the “shrunken log2 fold change” value is reported as -0.0186. For RRIRIRPPRLPRPRPRPFSFPRP, the “shrunken log2 fold change” value was -0.742. For RRIRFRPPRLPRPRPRPKRWPRP, the “shrunken log2 fold change” value was 0.0556. In the case of RRIRNRPPRLPRPRPRPTDRPRP, the “shrunken log2 fold change” value is reported as 0.0372. For RRIRARPPRLPRPRPRPLCMPRP, the “shrunken log2 fold change” value was -0.125. In the case of RRIRWRPPRLPRPRPRPDGWPRP, the “shrunken log2 fold change” value is reported as 1.12. RRIRSRPPRLPRPRPRPHNWPRP was tested, and the “shrunken log2 fold change” value was -0.248. For RRIRQRPPRLPRPRPRPDQAPRP, the “shrunken log2 fold change” value was 0.0424. For RRIRPRPPRLPRPRPRPMKCPRP, the “shrunken log2 fold change” value was -0.00631. With RRIRVRPPRLPRPRPRPNQIPRP the “shrunken log2 fold change” value was -0.1. With RRIRHRPPRLPRPRPRPHSYPRP the “shrunken log2 fold change” value was -0.191. With RRIRLRPPRLPRPRPRPSDMPRP the “shrunken log2 fold change” value was -0.18. In the case of RRIRWRPPRLPRPRPRPDMTPRP, the “shrunken log2 fold change” value is reported as 0.216. For RRIRKRPPRLPRPRPRPAVWPRP, the “shrunken log2 fold change” value was 0.563. With RRIRNRPPRLPRPRPRPTFKPRP the “shrunken log2 fold change” value was -0.175. In the case of RRIRPRPPRLPRPRPRPMIYPRP, the “shrunken log2 fold change” value is reported as -0.113. RRIRTRPPRLPRPRPRPYNEPRP was tested, and the “shrunken log2 fold change” value was -1.35. In the case of RRIRMRPPRLPRPRPRPITRPRP, the “shrunken log2 fold change” value is reported as 0.248. For RRIRKRPPRLPRPRPRPYGQPRP, the “shrunken log2 fold change” value was -0.306. For RRIRPRPPRLPRPRPRPVPCPRP, the “shrunken log2 fold change” value was 0.0816. In the case of RRIRQRPPRLPRPRPRPFVHPRP, the “shrunken log2 fold change” value is reported as -0.0465. For RRIRSRPPRLPRPRPRPMHYPRP, the “shrunken log2 fold change” value was -0.224. In the case of RRIRKRPPRLPRPRPRPWVKPRP, the “shrunken log2 fold change” value is reported as -0.148. With RRIRTRPPRLPRPRPRPWDGPRP the “shrunken log2 fold change” value was 0.0729. With RRIRTRPPRLPRPRPRPMVFPRP the “shrunken log2 fold change” value was 0.0283. For RRIRMRPPRLPRPRPRPGWSPRP, the “shrunken log2 fold change” value was 0.548. For RRIRDRPPRLPRPRPRPMQTPRP, the “shrunken log2 fold change” value was 0.0424. RRIRGRPPRLPRPRPRPSYAPRP was tested, and the “shrunken log2 fold change” value was 0.316. In the case of RRIRWRPPRLPRPRPRPDLDPRP, the “shrunken log2 fold change” value is reported as 0.311. With RRIRHRPPRLPRPRPRPRWHPRP the “shrunken log2 fold change” value was 0.102. For RRIRNRPPRLPRPRPRPVRQPRP, the “shrunken log2 fold change” value was 0.0327. With RRIRRRPPRLPRPRPRPAMMPRP the “shrunken log2 fold change” value was 0.163. For RRIRDRPPRLPRPRPRPVTYPRP, the “shrunken log2 fold change” value was -0.0305. RRIRRRPPRLPRPRPRPKTLPRP was tested, and the “shrunken log2 fold change” value was 0.146. In the case of RRIRGRPPRLPRPRPRPVCFPRP, the “shrunken log2 fold change” value is reported as 0.997. In the case of RRIRKRPPRLPRPRPRPVDAPRP, the “shrunken log2 fold change” value is reported as 0.493. For RRIRKRPPRLPRPRPRPDKKPRP, the “shrunken log2 fold change” value was -0.117. For RRIRTRPPRLPRPRPRPQPIPRP, the “shrunken log2 fold change” value was 0.0337. With RRIRYRPPRLPRPRPRPNRDPRP the “shrunken log2 fold change” value was -0.0959. RRIRLRPPRLPRPRPRPYKMPRP was tested, and the “shrunken log2 fold change” value was -0.851. In the case of RRIRDRPPRLPRPRPRPHNTPRP, the “shrunken log2 fold change” value is reported as -0.531. With RRIRMRPPRLPRPRPRPCLPPRP the “shrunken log2 fold change” value was 0.154. With RRIRSRPPRLPRPRPRPAVMPRP the “shrunken log2 fold change” value was 0.139. With RRIRDRPPRLPRPRPRPSLDPRP the “shrunken log2 fold change” value was -0.0616. For RRIRYRPPRLPRPRPRPQMRPRP, the “shrunken log2 fold change” value was -0.00174. With RRIRHRPPRLPRPRPRPHCTPRP the “shrunken log2 fold change” value was -0.0731. For RRIRTRPPRLPRPRPRPGIHPRP, the “shrunken log2 fold change” value was -0.158. For RRIRTRPPRLPRPRPRPIMHPRP, the “shrunken log2 fold change” value was -0.176. For RRIRERPPRLPRPRPRPMRAPRP, the “shrunken log2 fold change” value was 0.763. In the case of RRIRIRPPRLPRPRPRPPWYPRP, the “shrunken log2 fold change” value is reported as -0.394. With RRIRMRPPRLPRPRPRPFTDPRP the “shrunken log2 fold change” value was 0.174. RRIRARPPRLPRPRPRPTGTPRP was tested, and the “shrunken log2 fold change” value was 0.363. With RRIRSRPPRLPRPRPRPSFLPRP the “shrunken log2 fold change” value was 0.182. In the case of RRIRLRPPRLPRPRPRPAEIPRP, the “shrunken log2 fold change” value is reported as -0.219. RRIRNRPPRLPRPRPRPEDWPRP was tested, and the “shrunken log2 fold change” value was -0.0232. In the case of RRIRVRPPRLPRPRPRPHLWPRP, the “shrunken log2 fold change” value is reported as -0.0616. RRIRGRPPRLPRPRPRPHAAPRP was tested, and the “shrunken log2 fold change” value was 1.47. For RRIRLRPPRLPRPRPRPKQDPRP, the “shrunken log2 fold change” value was -0.199. For RRIRVRPPRLPRPRPRPSYEPRP, the “shrunken log2 fold change” value was -0.298. RRIRDRPPRLPRPRPRPQDEPRP was tested, and the “shrunken log2 fold change” value was -0.166. RRIRQRPPRLPRPRPRPAHQPRP was tested, and the “shrunken log2 fold change” value was 0.0203. For RRIRCRPPRLPRPRPRPQSIPRP, the “shrunken log2 fold change” value was -0.394. For RRIRQRPPRLPRPRPRPCRQPRP, the “shrunken log2 fold change” value was 0.0342. In the case of RRIRCRPPRLPRPRPRPYMDPRP, the “shrunken log2 fold change” value is reported as 0.0215. In the case of RRIRQRPPRLPRPRPRPVVRPRP, the “shrunken log2 fold change” value is reported as 0.169. RRIRSRPPRLPRPRPRPERGPRP was tested, and the “shrunken log2 fold change” value was -0.0603. RRIRIRPPRLPRPRPRPGCMPRP was tested, and the “shrunken log2 fold change” value was -0.134. In the case of RRIRCRPPRLPRPRPRPFLKPRP, the “shrunken log2 fold change” value is reported as -0.639. For RRIRNRPPRLPRPRPRPLLSPRP, the “shrunken log2 fold change” value was 0.1. In the case of RRIRERPPRLPRPRPRPTRCPRP, the “shrunken log2 fold change” value is reported as -0.0341. For RRIRHRPPRLPRPRPRPCYCPRP, the “shrunken log2 fold change” value was -0.617. For RRIRIRPPRLPRPRPRPMRAPRP, the “shrunken log2 fold change” value was 1.01.
